Substitutions are numbered along the chain they refer to.
B1: Redβ Y64A (natural protein, bacteriophage λ)
chain: GSHMSTALATLAGKLAERVGMDSVDPQELITTLRQTAFKGDASDAQFIALLIVANQYGLNPWTKEIAAFPDKQNGIVPVVGVDGWSRIINENQQFDGMDFEQDNESCTCRIYRKDRNHPICVTEWMDECRREPFKTREGREITGPWQSHPKRMLRHKAMIQCARLAFGFAGIYDKDEAERIVENTAYTAERQPERDITPVNDETMQEINTLLIALDKTWDDDLLPLCSQIFRRDIRASSELTQAEAVKALGFLKQKAAEQKVAA
notes: three residues (Gly-Ser-His) left before the initial methionine after thrombin removal of the tag; Redβ, recombinase of Enterobacteria phage λ, alanine substitution mutant; source: E. coli BL21(DE3), purified (HisTrap FF, thrombin digestion, HisTrap FF, Benzamidine FF); not shown: His6, N-terminal, cleaved
B2: Redβ K69A (natural protein, bacteriophage λ)
chain: B1 chain with A67Y, K72A
notes: as for B1
B3: Redβ V77A (natural protein, bacteriophage λ)
chain: B1 chain with A67Y, V80A
notes: as for B1
B4: Redβ G78A (natural protein, bacteriophage λ)
chain: B1 chain with A67Y, G81A
notes: as for B1
B5: Redβ V79A (natural protein, bacteriophage λ)
chain: B1 chain with A67Y, V82A
notes: as for B1
B6: Redβ D80A (natural protein, bacteriophage λ)
chain: B1 chain with A67Y, D83A
notes: as for B1
B7: Redβ K132A (natural protein, bacteriophage λ)
chain: B1 chain with A67Y, K135A
notes: as for B1
B8: Redβ R152A (natural protein, bacteriophage λ)
chain: B1 chain with A67Y, R155A
notes: as for B1
B9: Redβ K148A (natural protein, bacteriophage λ)
chain: B1 chain with A67Y, K151A
notes: three residues (Gly-Ser-His) left before the initial methionine after thrombin removal of the tag; Redβ, recombinase of Enterobacteria phage λ, alanine substitution mutant; By gel filtration complexes of approximately 3 subunits; source: E. coli BL21(DE3), purified (HisTrap FF, thrombin digestion, HisTrap FF, Benzamidine FF); not shown: His6, N-terminal, cleaved
B10: Redβ R149A (natural protein, bacteriophage λ)
chain: B1 chain with A67Y, R152A
notes: as for B9
B11: Redβ wild-type (WT) protein from bacteriophage λ (natural protein)
chain: B1 chain with A67Y
notes: three residues (Gly-Ser-His) left before the initial methionine after thrombin removal of the tag; Redβ, recombinase of Enterobacteria phage λ, bet gene amplified from phage λ genomic DNA, in pET14b; Forms multimers; subunit about 30 kDa; also called Redβ WT; source: E. coli BL21(DE3), purified (HisTrap FF, thrombin digestion, HisTrap FF, Benzamidine FF); not shown: His6, N-terminal, cleaved
B12: Redβ K172A (natural protein, bacteriophage λ)
chain: B1 chain with A67Y, K175A
notes: as for B1
B13: Redβ R161A (natural protein, bacteriophage λ)
chain: B1 chain with A67Y, R164A
notes: as for B1

Target: the molecule itself
Assay: SEC; Superdex 200 5/150 GL, 20 mM potassium phosphate pH 6.0, 10 mM MgCl2, 0.15 M NaCl; masses estimated from a calibration curve; self-association, no DNA

**Q.** Does B1 bind?
**A.** binds

**Q.** Does B2 bind?
**A.** binds

**Q.** Does B3 bind?
**A.** binds

**Q.** Does B4 bind?
**A.** binds

**Q.** Does B5 bind?
**A.** binds

**Q.** Does B6 bind?
**A.** binds

**Q.** Does B7 bind?
**A.** binds

**Q.** Does B8 bind?
**A.** binds

**Q.** B9 was tested. Which “stoichiometry N” value did it give?
**A.** ~3 subunits

**Q.** With B10 as the protein, how does the “stoichiometry N” value read?
**A.** ~3 subunits

Target: the molecule itself
Assay: native gel or EMSA; native PAGE, 10 µg protein per lane (20 µg in Figure S3), 5-20% gradient polyacrylamide gel, 25 mM Tris, 192 mM glycine, Coomassie stain; self-association, no DNA

**Q.** Does B11 bind?
**A.** binds

**Q.** Does B12 bind?
**A.** binds

**Q.** Does B13 bind?
**A.** binds
